Among the data in US20220162320A1 (published 2022) are binding result and Kd values, retold here.

Assay [1] addresses HLA-A*02:01 (alpha chain with beta-2 microglobulin), recombinant (human). The assay can be described thus: conditional ligand exchange, stability ELISA. For orientation: In an ELISA, binding on a coated surface is turned into a signal by an enzyme label.
Assay [2] has as its target T1, HLA-B*35:01 (alpha chain with beta-2 microglobulin), recombinant (human).
T1 construct: also called HLA complex of the conditional ligand exchange / stability ELISA
The experiment in a line: conditional ligand exchange, stability ELISA.

Assay [3] concerns the target HLA-PEPTIDE target G10: HLA-A*01:01_…, recombinant soluble complex (human, enzymatically biotinylated (BirA)). The experiment in a line: phage display, scFv ELISA on pHLA against negative control pHLAs.
The target of assay [4] is T2, HLA-PEPTIDE target G2: HLA-A*01:01_…, recombinant soluble complex (human, enzymatically biotinylated (BirA)).
T2 construct: also called G2-pHLA
The experiment in a line: BLI, antibody from 100 nM in 1:2 steps, 1:1 model; apparent KD. In general terms: BLI is a label-free optical method that tracks binding on a fibre tip over time.

The target in assay [5] is T3, HLA-A*01:01_… (G2) presented on cells (human).
T3 construct: whole, on cells
The assay can be described thus: flow cytometry on pulsed K562 cells, against off target peptide [..] and unpulsed cells. (A flow cytometer gives signals particle by particle.)

In assay [6] the target is T2, HLA-PEPTIDE target G2: HLA-A*01:01_…, …. The assay can be described thus: BLI.

In the case of LLASSILCA (also called G7 peptide) [peptide LLASSILCA], in assay [1], the binding result is listed as “binds”.
As for EVDPIGHVY (also called G5 peptide) [peptide EVDPIGHVY], in assay [2], the binding result is on record as “binds”.

B1: scFv G10(5A08) (scFv, V domains shown)
VH: QVQLVQSGAEVKKPGSSVKVSCKASGGTFNNFAISWVRQAPGQGLEWMGGIIPIFDATNYAQKFQGRVTFTADESTSTAYMELSSLRSEDTAVYYCARGEYSSGFFFVGWFDLWGRGTQVTVSS
VL: not shown
notes: also called G10(5A8); scFv-G10-P5A08
For the molecule B1, in assay [3], the binding result is recorded as “binds”.

B2: 4-G2(1H11)-OKT3 (bispecific antibody, human IgG1, kappa, N297Q)
chain: not shown
heavy: not shown
light: QIVLTQSPAIMSASPGEKVTMTCSASSSVSYMNWYQQKSGTSPKRWIYDTSKLASGVPAHFRGSGSGTSYSLTISGMEAEDAATYYCQQWSSNPFTFGSGTKLEINRTVAAPSVFIFPPSDEQLKSGTASVVCLLNNFYPREAKVQWKVDNALQSGNSQESVTEQDSKDSTYSLSSTLTLSKADYEKHKVYACEVTHQGLSSPVTKSFNRGEC
notes: also called format #4 (scFv/scFv-Fab): scFv G2(1H11), Fab OKT3
Take B2: the Kd in assay [4] was 1.27 nM.

B3: scFv G10(5C08) (scFv, V domains shown)
VH: QVQLVQSGAEVKKPGASVKVSCKASGYNFTGYYMHWVRQAPGQGLEWMGIIAPSDGSTNYAQKFQGRVTMTRDTSTSTVYMELSSLRSEDTAVYYCARETGDDAFDIWGQGTMVTVSS
VL: not shown
With B3, the binding result in assay [3] is listed as “binds”.

B4: 3-G2(1H11)-hOKT3 (bispecific antibody, human IgG1, kappa, N297Q)
chain: not shown
heavy: QVQLVQSGAEVKKPGASVKVSCKASGYTFTRYTMHWVRQAPGQGLEWMGYINPSRGYTNYNQKFKDRVTLTTDKSSSTAYMELSSLRSEDTAVYYCARYYDDHYSLDYWGQGTLVTVSSASTKGPSVFPLAPSSKSTSGGTAALGCLVKDYFPEPVTVSWNSGALTSGVHTFPAVLQSSGLYSLSSVVTVPSSSLGTQTYICNVNHKPSNTKVDKRVEPKSCDKTHTCPPCPAPELLGGPSVFLFPPKPKDTLMISRTPEVTCVVVDVSHEDPEVKFNWYVDGVEVHNAKTKPREEQYQSTYRVVSVLTVLHQDWLNGKEYKCKVSNKALPAPIEKTISKAKGQPREPQVCTLPPSREEMTKNQVSLSCAVKGFYPSDIAVEWESNGQPENNYKTTPPVLDSDGSFFLVSKLTVDKSRWQQGNVFSCSVMHEALHNRFTQKSLSLSPGK
light: DIQMTQSPSSLSASVGDRVTITCSASSSVSYMNWYQQKPGKAPKRLIYDTSKLASGVPSRFSGSGSGTDFTLTISSLQPEDFATYYCQQWSSNPFTFGQGTKLEIKRTVAAPSVFIFPPSDEQLKSGTASVVCLLNNFYPREAKVQWKVDNALQSGNSQESVTEQDSKDSTYSLSSTLTLSKADYEKHKVYACEVTHQGLSSPVTKSFNRGEC
notes: also called 3-hOKT3-G2(1H11)
Turning to B4, the binding result in assay [5] and in assay [6] was “binds” each time.
